Article PMC3005596 (Journal of molecular biology, 2010)
Residue numbers refer to the chain shown, from its start. Read-outs that look alike come from different tables or passages of the source.

Assays:
[1] = target: human Dicer (human, UniProt Q9UPY3 1-1922); assay: SEC
[2] = target: T1, TRBPpm (phospho-mimic) (human, UniProt Q15633 1-366, S142D;S152D;S283D;S286D); assay: filter binding
T1 sequence: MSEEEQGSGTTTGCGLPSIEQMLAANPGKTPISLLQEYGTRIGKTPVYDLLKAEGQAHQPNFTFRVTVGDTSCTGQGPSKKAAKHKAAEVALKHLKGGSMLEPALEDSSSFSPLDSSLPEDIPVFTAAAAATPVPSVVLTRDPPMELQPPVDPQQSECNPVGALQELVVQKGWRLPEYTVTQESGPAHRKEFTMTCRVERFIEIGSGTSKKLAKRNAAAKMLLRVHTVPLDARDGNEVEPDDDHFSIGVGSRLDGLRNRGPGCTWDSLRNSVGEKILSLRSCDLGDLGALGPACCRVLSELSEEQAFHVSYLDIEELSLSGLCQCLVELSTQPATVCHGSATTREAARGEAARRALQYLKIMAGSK

[3] = target: T2, TRBP (human, UniProt Q15633 1-366); assay: filter binding
T2 sequence: T1 sequence with D142S, D152S, D283S, D286S

[4] = target: Dicer;TRBPpm (phospho-mimic) (human;human, UniProt Q9UPY3;Q15633 1-1922;1-366, |S142D;S152D;S283D;S286D); assay: filter binding
[5] = target: Dicer;TRBP (human;human, UniProt Q9UPY3;Q15633 1-1922;1-366, |); assay: filter binding
[6] = target: Dicer;TRBPRBD3 (human;human, UniProt Q9UPY3;Q15633 1-1922;293-366, |); assay: filter binding
[7] = target: Dicer (human, UniProt Q9UPY3 1-1922); assay: filter binding
[8] = target: T1, TRBPpm (phospho-mimic); assay: filter binding; remark: listed apart in the source
[9] = target: T2, TRBP; assay: filter binding; remark: listed apart in the source

Dicer;TRBP, sequence (Q9UPY3 whole entry, one chain of several): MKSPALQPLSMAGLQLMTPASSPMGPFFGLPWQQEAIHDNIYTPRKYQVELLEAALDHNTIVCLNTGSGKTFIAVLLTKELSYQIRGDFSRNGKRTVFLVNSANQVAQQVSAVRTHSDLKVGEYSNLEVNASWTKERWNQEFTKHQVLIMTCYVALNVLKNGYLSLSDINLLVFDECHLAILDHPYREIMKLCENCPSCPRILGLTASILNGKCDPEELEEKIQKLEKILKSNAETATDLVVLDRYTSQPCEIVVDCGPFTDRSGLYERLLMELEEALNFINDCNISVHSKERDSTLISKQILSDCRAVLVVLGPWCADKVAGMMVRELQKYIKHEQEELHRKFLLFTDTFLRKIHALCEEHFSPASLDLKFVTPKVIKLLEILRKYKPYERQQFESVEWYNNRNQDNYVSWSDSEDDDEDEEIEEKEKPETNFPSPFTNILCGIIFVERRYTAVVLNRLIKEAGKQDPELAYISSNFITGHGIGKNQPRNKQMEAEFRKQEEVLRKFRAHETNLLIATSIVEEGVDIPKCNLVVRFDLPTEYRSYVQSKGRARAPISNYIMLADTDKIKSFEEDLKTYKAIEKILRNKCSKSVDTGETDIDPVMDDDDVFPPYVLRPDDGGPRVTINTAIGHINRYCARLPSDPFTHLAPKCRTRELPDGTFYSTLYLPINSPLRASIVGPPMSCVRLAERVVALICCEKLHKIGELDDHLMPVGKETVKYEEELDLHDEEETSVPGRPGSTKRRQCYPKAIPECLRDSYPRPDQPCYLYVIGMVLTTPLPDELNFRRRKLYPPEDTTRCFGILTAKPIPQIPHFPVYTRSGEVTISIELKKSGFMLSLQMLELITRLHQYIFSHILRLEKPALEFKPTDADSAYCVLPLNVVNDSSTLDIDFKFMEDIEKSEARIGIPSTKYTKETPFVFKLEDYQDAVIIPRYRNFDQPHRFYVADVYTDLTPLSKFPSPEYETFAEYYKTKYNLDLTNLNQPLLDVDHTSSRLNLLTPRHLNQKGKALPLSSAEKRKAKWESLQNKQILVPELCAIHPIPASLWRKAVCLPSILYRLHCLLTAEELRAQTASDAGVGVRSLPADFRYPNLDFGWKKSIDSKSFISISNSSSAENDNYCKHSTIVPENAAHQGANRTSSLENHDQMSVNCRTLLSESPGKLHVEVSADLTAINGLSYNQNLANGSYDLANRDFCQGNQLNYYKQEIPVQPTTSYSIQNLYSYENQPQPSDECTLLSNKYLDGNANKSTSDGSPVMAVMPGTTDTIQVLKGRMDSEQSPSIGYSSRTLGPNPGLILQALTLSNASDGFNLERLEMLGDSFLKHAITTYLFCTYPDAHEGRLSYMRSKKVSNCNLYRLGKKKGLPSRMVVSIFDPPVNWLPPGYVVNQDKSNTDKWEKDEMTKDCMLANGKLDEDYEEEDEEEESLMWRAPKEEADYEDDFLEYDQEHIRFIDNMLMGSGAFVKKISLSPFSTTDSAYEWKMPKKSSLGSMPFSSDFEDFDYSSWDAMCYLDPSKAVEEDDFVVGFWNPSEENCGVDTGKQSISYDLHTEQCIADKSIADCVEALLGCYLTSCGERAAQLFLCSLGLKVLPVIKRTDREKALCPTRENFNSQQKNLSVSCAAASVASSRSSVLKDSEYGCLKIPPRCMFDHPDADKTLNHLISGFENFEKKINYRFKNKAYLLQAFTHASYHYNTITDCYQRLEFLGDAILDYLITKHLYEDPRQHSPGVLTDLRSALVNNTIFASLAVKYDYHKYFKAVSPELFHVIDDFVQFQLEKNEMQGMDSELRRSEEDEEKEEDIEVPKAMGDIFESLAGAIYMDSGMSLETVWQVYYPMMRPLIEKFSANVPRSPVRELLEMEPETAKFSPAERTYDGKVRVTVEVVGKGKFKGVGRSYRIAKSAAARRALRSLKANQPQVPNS
human Dicer, sequence (Q9UPY3 whole entry): as the sequence (Q9UPY3 whole entry, one chain of several) above
Dicer;TRBPRBD3, sequence (Q9UPY3 whole entry, chain 1 of 2, one chain of several): as the sequence (Q9UPY3 whole entry, one chain of several) above
Dicer, sequence (Q9UPY3 whole entry): as the sequence (Q9UPY3 whole entry, one chain of several) above
Dicer;TRBPpm (phospho-mimic), sequence (Q9UPY3 whole entry, chain 1 of 2, one chain of several): as the sequence (Q9UPY3 whole entry, one chain of several) above

B1: HIV trans-activating response (TAR) RNA binding protein (TRBP) (natural protein, human, UniProt Q15633 1-366, looked up)
chain: T1 sequence with D142S, D152S, D283S, D286S
- binding result [1]: binds

B2: phospho-mimic mutant of TRBP (TRBPpm) (natural protein, human, UniProt Q15633 1-366, looked up)
chain: T1 sequence
- binding result [1]: binds

B3: pre-let-7a (structured_RNA)
RNA: UGAGGUAGUAGGUUGUAUAGUUUUAGGGUCACACCCACCACUGGGAGAUAACUAUACAAUCUACUGUCUUACC
- Kd [2]: 2.9 ± 0.6 nM
- Kd [3]: 1.3 ± 0.2 nM
- Kd [4]: < 0.04 nM
- Kd [5]: < 0.05 nM
- Kd [6]: 1.3 ± 0.1 nM
- Kd [7]: 1.8 ± 0.4 nM

B4: 35-bp duplex (pre-siRNA) (dsRNA)
RNA 1: UGAGGUAGUAGGUUGUAUAGUUUGAAAGUUCACGAUU
RNA 2: UCGUGAACUUUCAAACUAUACAACCUACUACCUCAAA
- Kd [5]: < 0.051 nM
- Kd [8]: < 0.1 nM
- Kd [9]: < 0.09 nM
- Kd [6]: 3 ± 0.4 nM
- Kd [7]: 3.4 ± 0.5 nM
